Measurements as given in the supplement of paper PMC11246515.
± gives the standard deviation of the averaged measurements.

Assay: total protein half-life in vivo (active degradation + dilution); higher = more stable protein
[1] = E. coli NCM3722 delta-clpP delta-lon delta-hslV, growth: N-lim chemostat, doubling time 6 h
[2] = E. coli NCM3722 delta-hslV, growth: N-lim chemostat, doubling time 6 h
[3] = E. coli NCM3722 delta-lon, growth: N-lim chemostat, doubling time 6 h
[4] = E. coli NCM3722 delta-smpB, growth: N-lim chemostat, doubling time 6 h
[5] = wild type E. coli NCM3722, growth: C-lim chemostat, doubling time 3 h
[6] = wild type E. coli NCM3722, growth: C-lim chemostat, doubling time 6 h
[7] = wild type E. coli NCM3722, growth: C-lim chemostat, doubling time 12 h
[8] = wild type E. coli NCM3722, growth: N-lim chemostat, doubling time 6 h
[9] = wild type E. coli NCM3722, growth: N-lim chemostat, doubling time 12 h
[10] = wild type E. coli NCM3722, growth: P-lim chemostat, doubling time 6 h
[11] = wild type E. coli NCM3722, growth: P-lim chemostat, doubling time 12 h
[12] = E. coli NCM3722 delta-clpP, growth: N-lim chemostat, doubling time 6 h

| Sequence | total protein half-life in vivo [1] | total protein half-life in vivo [2] | total protein half-life in vivo [3] | total protein half-life in vivo [4] | total protein half-life in vivo [5] | total protein half-life in vivo [6] | total protein half-life in vivo [7] | total protein half-life in vivo [8] | total protein half-life in vivo [9] | total protein half-life in vivo [10] | total protein half-life in vivo [11] | total protein half-life in vivo [12] |
| --- | --- | --- | --- | --- | --- | --- | --- | --- | --- | --- | --- | --- |
| MAWNQPGNNGQDRDPWGSSKPGGNSEGNGNKGGRDQGPPDLDDIFRKLSKKLGGLGGGKGTGSGGGSSSQGPRPQLGGRVVTIAAAAIVIIWAASGFYTIKEAERGVVTRFGKFSHLVEPGLNWKPTFIDEVKPVNVEAVRELAASGVMLTSDENVVRVEMNVQYRVTNPEKYLYSVTSPDDSLRQATDSALRGVIGKYTMDRILTEGRTVIRSDTQRELEETIRPYDMGITLLDVNFQAARPPEEVKAAFDDAIAARENEQQYIREAEAYTNEVQPRANGQAQRILEEARAYKAQTILEAQGEVARFAKLLPEYKAAPEITRERLYIETMEKVLGNTRKVLVNDKGGNLMVLPLDQMLKGGNAPAAKSDNGASNLLRLPPASSSTTSGASNTSSTSQGDIMDQRRANAQRNDYQRQGE [P0ABC7] | 7 ± 0.75 h | 6.71 ± 0.23 h | 6.55 ± 0.23 h | 6.38 ± 0.49 h | 2.99 ± 0.1 h | 6.35 ± 0.6 h | 13.1 ± 1 h | 6.52 ± 0.65 h | 13.8 ± 0.55 h | 6.06 ± 0.31 h | 13.98 ± 0.078 h | – |
| MAYKHIGVAISGNEEDALLVNKALELARHNDAHLTLIHIDDGLSELYPGIYFPATEDILQLLKNKSDNKLYKLTKNIQWPKTKLRIERGEMPETLLEIMQKEQCDLLVCGHHHSFINRLMPAYRGMINKMSADLLIVPFIDK [P0AAB8] | 4.18 ± 0.41 h | 3.73 h | 4.56 ± 0.14 h | 2.7 ± 0.18 h | 2.99 h | 5.49 h | 9.51 ± 0.66 h | 3.69 h | 5.52 ± 0.12 h | 4.66 ± 0.43 h | 10.7 ± 0.12 h | 3.79 ± 0.29 h |
| MAYRSAPLYEDVIWRTHLQPQDPTLAQAVRATIAKHREHLLEFIRLDEPAPLNAMTLAQWSSPNVLSSLLAVYSDHIYRNQPMMIRENKPLISLWAQWYIGLMVPPLMLALLTQEKALDVSPEHFHAEFHETGRVACFWVDVCEDKNATPHSPQHRMETLISQALVPVVQALEATGEINGKLIWSNTGYLINWYLTEMKQLLGEATVESLRHALFFEKTLTNGEDNPLWRTVVLRDGLLVRRTCCQRYRLPDVQQCGDCTLK | 3.38 ± 1.1 h | – | – | – | – | – | – | – | – | – | – | – |
| MAYYSIGDVAERCGINPVTLRAWQRRYGLLKPQRSEGGHRLFDEEDIQRIEEIKRWISNGVPVGKVKALLETTSQDTEDDWSRLQEEMMSILRMANPAKLRARIISLGREYPVDQLINHVYLPVRQRLVLDHNTSRIMSSMFDGALIEYAATSLFEMRRKPGKEAILMAWNVEERARLWLEAWRLSLSGWHISVLADPIESPRPELFPTQTLIVWTGMAPTRRQNELLQHWGEQGYKVIFHAP | 4.63 ± 0.56 h | 1.93 h | – | 1.79 ± 0.14 h | 2.13 ± 0.29 h | 3.02 ± 0.39 h | 4.42 ± 0.35 h | 2 ± 0.16 h | 2.72 ± 0.041 h | 1.39 ± 0.094 h | 5.43 h | 3.95 ± 2.5 h |
| MCELLGMSANVPTDICFSFTGLVQRGGGTGPHKDGWGITFYEGKGCRTFKDPQPSFNSPIAKLVQDYPIKSCSVVAHIRQANRGEVALENTHPFTRELWGRNWTYAHNGQLTGYKSLETGNFRPVGETDSEKAFCWLLHKLTQRYPRTPGNMAAVFKYIASLADELRQKGVFNMLLSDGRYVMAYCSTNLHWITRRAPFGVATLLDQDVEIDFSSQTTPNDVVTVIATQPLTGNETWQKIMPGEWRLFCLGERVV | 6.35 ± 0.88 h | 5.68 ± 0.45 h | 6.32 ± 0.5 h | 5.67 ± 0.13 h | 3.37 ± 0.54 h | 6.2 ± 0.066 h | 12.6 ± 1.6 h | 5.695 ± 0.045 h | 12.2 ± 1.4 h | 5.83 ± 0.3 h | 12.5 ± 0.73 h | 5.84 ± 0.22 h |
| MCGIVGAIAQRDVAEILLEGLRRLEYRGYDSAGLAVVDAEGHMTRLRRLGKVQMLAQAAEEHPLHGGTGIAHTRWATHGEPSEVNAHPHVSEHIVVVHNGIIENHEPLREELKARGYTFVSETDTEVIAHLVNWELKQGGTLREAVLRAIPQLRGAYGTVIMDSRHPDTLLAARSGSPLVIGLGMGENFIASDQLALLPVTRRFIFLEEGDIAEITRRSVNIFDKTGAEVKRQDIESNLQYDAGDKGIYRHYMQKEIYEQPNAIKNTLTGRISHGQVDLSELGPNADELLSKVEHIQILACGTSYNSGMVSRYWFESLAGIPCDVEIASEFRYRKSAVRRNSLMITLSQSGETADTLAGLRLSKELGYLGSLAICNVPGSSLVRESDLALMTNAGTEIGVASTKAFTTQLTVLLMLVAKLSRLKGLDASIEHDIVHGLQALPSRIEQMLSQDKRIEALAEDFSDKHHALFLGRGDQYPIALEGALKLKEISYIHAEAYAAGELKHGPLALIDADMPVIVVAPNNELLEKLKSNIEEVRARGGQLYVFADQDAGFVSSDNMHIIEMPHVEEVIAPIFYTVPLQLLAYHVALIKGTDVDQPRNLAKSVTVE | 5.12 ± 0.77 h | 4 ± 0.11 h | 4.01 ± 0.15 h | 3.98 ± 0.33 h | 3.14 ± 0.23 h | 5.37 ± 0.3 h | 9.64 ± 0.98 h | 4.14 ± 0.067 h | 6.35 ± 0.37 h | 5.8 ± 0.14 h | 11.3 ± 0.96 h | 5.07 ± 1.3 h |
| MCGIVGIAGVMPVNQSIYDALTVLQHRGQDAAGIITIDANNCFRLRKANGLVSDVFEARHMQRLQGNMGIGHVRYPTAGSSSASEAQPFYVNSPYGITLAHNGNLTNAHELRKKLFEEKRRHINTTSDSEILLNIFASELDNFRHYPLEADNIFAAIAATNRLIRGAYACVAMIIGHGMVAFRDPNGIRPLVLGKRDIDENRTEYMVASESVALDTLGFDFLRDVAPGEAIYITEEGQLFTRQCADNPVSNPCLFEYVYFARPDSFIDKISVYSARVNMGTKLGEKIAREWEDLDIDVVIPIPETSCDIALEIARILGKPYRQGFVKNRYVGRTFIMPGQQLRRKSVRRKLNANRAEFRDKNVLLVDDSIVRGTTSEQIIEMAREAGAKKVYLASAAPEIRFPNVYGIDMPSATELIAHGREVDEIRQIIGADGLIFQDLNDLIDAVRAENPDIQQFECSVFNGVYVTKDVDQGYLDFLDTLRNDDAKAVQRQNEVENLEMHNEG [P0AG16] | 5.35 ± 1.5 h | 2.31 ± 0.34 h | 2.37 ± 0.23 h | 2.13 ± 0.17 h | 2.301 ± 0.0058 h | 4.01 ± 0.4 h | 5.59 ± 0.33 h | 2.25 ± 0.18 h | 2.8937 ± 0.00088 h | 3.6 ± 0.23 h | 6.17 ± 0.076 h | 4.19 ± 0.24 h |
